The numbers were not newly measured in PMC4826273, which cites them from elsewhere.

The data set concerns the target Dll-1 (Homo sapiens) (UniProt O00548). Kind of data set: surface plasmon resonance.
Chain of UniProt O00548 (O00548 18-545): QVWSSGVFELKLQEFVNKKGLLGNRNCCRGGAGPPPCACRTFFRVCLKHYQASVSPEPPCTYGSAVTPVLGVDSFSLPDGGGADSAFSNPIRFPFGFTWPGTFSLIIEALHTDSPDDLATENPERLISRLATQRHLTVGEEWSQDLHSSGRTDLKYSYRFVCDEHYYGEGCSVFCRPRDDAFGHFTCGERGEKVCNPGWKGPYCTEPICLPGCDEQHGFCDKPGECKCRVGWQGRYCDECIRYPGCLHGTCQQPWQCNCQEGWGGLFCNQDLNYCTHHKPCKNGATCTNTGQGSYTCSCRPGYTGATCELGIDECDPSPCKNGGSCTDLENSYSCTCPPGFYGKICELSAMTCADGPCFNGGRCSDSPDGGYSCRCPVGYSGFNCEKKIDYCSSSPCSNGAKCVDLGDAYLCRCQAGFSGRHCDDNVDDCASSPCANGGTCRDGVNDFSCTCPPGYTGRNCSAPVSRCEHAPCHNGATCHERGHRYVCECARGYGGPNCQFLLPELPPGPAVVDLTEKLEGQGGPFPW

As for Notch1 (from UniProt P46531), the equilibrium dissociation constant (Kd) was 130 µM.
